Measurements taken from a protein production outcome set (Wang et al. 2014).

Assay: label from the status in PepcDB records

TLEWPELLQQCEQLNKPNQINLNPALLWQCQGVGSAPPASNLRESRIKAVLAINPVTNPIFGPDGMKNLAVPTLIVAGSKDIFAPPVPEQIIPFSLIEGVNKYLLLVQNGTHLSFLEDTDNLPEKIVGPGQDLAYTYMKSLGLAFFDLYLQQDSSFKPYLTDSVVQQMSQEPLPLQLVPSL
protein production: failed

MLELIIILLFIILSAIFSASETAYTSLSIIQIQDIRKKGKSGISVYNLVQSPSKLITTILIGNNISNIVASTLTTKFVLEKYGNSALAISTGLITIIVLIFAEILPKQIAILNNEIIALSTSFFLKPLIFIFTPLIYIINKIIKKILNLFKVKTSSQMTKESIKNMLSLAGSLGILKNDSRIFMQKMLDIDQVRASEIMTHRTGVFSLSSSSKLKDVIKLIKEEGYSRIPIYKGQSREQIIGILIAKDLIEVNKKDMNKNVSQFIKPAVFVQQNKRIKDILDIMRKKQKIMAIVIDEYGGFSGILTIEDIVEKIFGAISDEYDIKEEKPLITQINDNTYSILGETTFDEIEEAIGISIKHKEYTNTIGGYLIDLLDKIPTKNETVKTNDGEYFIKEIQNNKIETITFIKSKK
protein production: failed

MSTSMPTALAGGRYQLGQLIGRGGMAEVHVALDTRLGRTVAVKIMRADLANDDIFLARFRREAHAVAQMNNPNIVNIYDSGEELVSSESGDTERLPYIVMEYVKGQTLRDIIKVNGALSQRDCEQVLLGVLNALDYSHRMGIIHRDIKPGNIMISEQGVVKVMDFGIARALDDSAATMTQSQGVVGTAQYLSPEQARGETVDMRSDLYSAGCVLYEMLTGRPPFTGDSAVAIAYQHVSEVATPPSAVVPGLPKMWDSICAKAMAKDRQNRYATASEFKTDILTYMNGGVPVAAAFNPLTDLSNMKARKEAERDLPTTPVEPQQQPTQAFNPVTGQFEQIPPANGANSAALQSRAQQRAAAAKAKKRKKIIIGSVIAVLAVALVGAGVVFAMSGAPNKSAEDKVTIPEVCNASTSKDNIKLKLETLGLTMVGKQDTDSTEPEGTCTKMSPEAGAKVAKGSKVKVWFSAGPQSTQVPDVKERSQEEARSILESAGFKVNATVRTEDSADIAKDMVTKTDPAAGQSVPKGTTITIYVSSGMTTVPSNLVGQSKDSVLQQYEGRFSFTVEQESSDTVEAGLITRVSPDSGSSIAQGGSITIWVSTGKEKVAVPNIAAGTKYATAELMLKAVGLKAQANGPADPTAVVVGIDPGAGAQVDVGSTVTITTKAAVTGDNNGNGNGNAGGSSSTGGTGPGGDK
protein production: failed

MTRPTHPNALIWLLLSIAIIALDQATKAWVLTSLPEYIPVPVIHGFWNWYRSYNTGAAFSFLSDAGGWQMWLFIALALGISGLLTFWLSRTPRREWRSALPYALIIGGGIGNVIDRFLHGHVVDFIQWYVGSYYWPSFNLADSAIVAGAIGIGLLSLFDSKHSPKTP
protein production: failed

MNYDDPKKKVGRNIKRLRLKAGIKSQAALAELCGWKSQSRVGNYEAGTRAVSAIDAETLAKVLNVTPAEILYGENNKDDDFVSMPSAQYSSGPYEEEDPFQLFKPKQELQNAEWHAGFELWDGDTPLRDDEVALPFYREVELAAGSGSTFVQENGGCKLRFAKSTLKKSRVEPSNAACVTVSGNSMLPVLRHGTTVGVDTSKKSIIDGEMYAIDHDGMLRVKMLYRTPGGGIRIKSYNNDEFPDEFIPPEKASDIKIIGWVFWWSVLNVWNN
protein production: failed

MYIVNSYTLAIIFCFITMICWGSWGNTQKLASKNWRYELYYWDYTIGILLFALLLVFTLGSFGDSGRGFLEDIQQVEAAYIASALIGGAIFNASNILLSASVSIAGMAVAFPLGVGLALVLGVFINYFSSPKGDPFWLFTGVVLIVIAIICNGIAAGKNQKAGTNNSKKGIILAAIAGILMSFFYRFVAAAMDLNNFESPTTGMATPYTAFFIFAIGIFLSNFLFNTLVMKRPFVGLPVTYKEYFAGKASTHMVGILGGCIWGLGTALSYIAAGKAGAAISYALGQGAPMIAALWGVFIWKEFTGSSKATNRLLGVMFILFILGLTFIVISGGS
protein production: failed

MVKKSYVINWARDLANRGVGVNYDGAFGSQCVDLPFWILGKFFGRPISGNAIDLLNSAKAAGYQVIYDAPGVNPRVGDIFVMHSIAYDGKDYGHTGLVIEDSDGHSIKTIEQNVDGNADNLYVGGPARYRTRSFNGIIGWIRPPYENEILENKREETDMRDFFVITNSEYTFAGVHYAKGAVLHVSPTQKRAFWVIADQENFIKQVNKNIEYVEKNASPAFLQRIVEIYQVKFEGKNVH
protein production: not failed

TPLLAILFIAQVSGSGRRVGVVGWPDLNYAGVLGYGGCYERIFAVPQQERTSLRVVTALAHGCDLVITRAGPTPRTYTPLQTQRFRNSLRSDAGCVIMMGDHVVSPAARLASAVVGYHGIGKGTGRIKAVEITVTGIAKGFYRTSRVIVGKHIAPAAEKTTMK
protein production: failed

MIETLITFIIIFGIIVAIHEYGHLWWAKRSGILVREYAVGMGPKIFAHQAKDGTLYTIRILPLGGYVRLAGWGDDKTEIKKGQAASLVVSKSEVVNPEAENSVSNIVRRINLSEHVELEEAIPMLITEYDFEKELFIEGEVFGEIKRYSVDHDATIIEEDGTEVRIAPLDVQYQSAGVFHKMLTNFGGPLNNFILGIIAFIVLTFVQGGVPSTTNAIGQVEKGTPAYNAGLKAGDKIEAVNGTKTADWNNVVTEISGSKGKELKLEVSRSGKSETLSVTPKKMDGSYRVGIMQSMKTGFFDKITGGFVQAGQSATAIFKALGSLIARPSLDKLGGPVAIYQLSGQAARAGFPAIVYLLAMLSINLGIVNLFPIPVLDGGKIVLNIIEAIRGKALSQEKESIITMVGVVFMLVLFVAVTWNDILRAFVN
protein production: failed

PDHKMSDVDTRHVAGLMRINHTGEVCAQALYQGQALTAKLPKVRKAMEHAAEEEIDHLVWCEQRIHQLGSHTSVLNPLFYGLSFGIGAVAGVISDRVSLGFVAATEDQVCKHLGEHLEQLPIEDGKSRAILEQMLSDEEHHAE
protein production: failed

MKYSLGIDLGTTFSVVSIIDENGAPKVLKNKEGNTLTPSVIYFSGEEIIVGDDAKEMQAMGDNNIACFFKRNMGDENFVLEFQNKYYNAEDLSVIVLKKLKKDAEDFLKAEVKDAVITVPAYFNNIQRQSTINAGKRAEFNVLSILNEPTAAAMAYGMKASGENKNILVYDLGGGTFDVTLVHIGEELIKVLSTDGDHELGGKDWDDRIAMYIGEKFFEKFGVNPMDDIEYYNDILVKCENVKKHLSKRESTDISIYYCDLSEKFTITKEIFLGLTGDLLQRTKSLSDDVIKSAGLTWEDIDGVLPVGGSTRMPMVLDFIKEVSKKEPIVGINVDEAVSIGAAIKASMENATNTPTLRREEKALFTLGGYKKTEDVMSHSLGMIALNSTGERYINSIIIEKNKKIPCTEKRPYEIRTGRNRNNVLEVYMLQGESEEISDCTILGKYVFYDIEYVGRKPSIIDIEYSYNKNGVVDVFATQRETAKKLPLKIEKLSEDFIFEEELNEKEEAVHKNIVIAIDLSGSMRGKPLEEAIEASKTFVDSIDEGSFSLALIGFADKVKTLINLTEDREEIFRAIDGLKKADVGTSTMSEPFSEAYNILKDAYGDCFVVVLTDGQWYGKKDIMAEVNKCKEYEIEIAAIGFGNAKKDFLDKIATCEENSIFTEVSNLKQSFSRIAKVISRSDGSIKIFQKSNSIKLR
protein production: failed

MRSSQAIDFERIPEMEDKWRKEITAMTVTLQDKRKAIQNDEILRGVHPKSHGCLDAEFTVNRDIAPQFQVGLFAQPGKCFRARIRYSNADVLKRADLEKGQDATGARFLNHGSRGMAIKVLDVGAPVLLEDGCARNQDFLMVNTPEFAFRNVRDYLRLTKALCASADGADPLLFFLPGELLKRGMMDMSGSLLPAPAGEPPQNAGLRALFEANRAFFDDFDAEDMQGVISAAGVVGKIQSTPVRNPLFAPYFSAASFRFGKDRVMRFSVVPLQSEEMAADMASDAFEDFSDDYLSQALALSVATNEPIKLSFRIQIAHEEDIVNDIDGMIENAAKTWDEDQFSHTEVAQITINPPCPSAELVDTCKPLLFTPWHAVVDFEPLGGINRLRKPVYSTSAAFRRSVLEHHHHHH
protein production: failed

MDLSSPSSFTATIDAPLRAAVFDSAVEAVLLVDPTLDQIVDANNAASALLGHDRDTLLQTRFSALHGAQLPALVVFTQAVFAKGTYWTHALTPLHADGTQLRLEYAGKLLPYRGRSLLLLTMSDLEQ
protein production: failed

MPHRCAAQVVAGYRSTVSLVLVEHPRPEIAQITLNRPERMNSMAFDVMVPLKEALAQVSYDNSVRVVVLTGAGRGFSPGADHKSAGVVPHVENLTRPTYALRSMELLDDVILMLRRLHQPVIAAVNGPAIGGGLCLALAADIRVASSSAYFRAAGINNGLTASELGLSYLLPRAIGSSRAFEIMLTGRDVSAEEAERIGLVSRQVPDEQLLDACYAIAARMAGFSRPGIELTKRTLWSGLDAASLEAHMQAEGLGQLFVRLLTANFEEAVAARAEQRAPVFTDDT
protein production: failed

MACGEFSLIARYFDRVRSSRLDVELGIGDDCALLNIPEKQTLAISTDTLVAGNHFLPDIDPADLAYKALAVNLSDLAAMGADPAWLTLALTLPDVDEAWLESFSDSLFDLLNYYDMQLIGGDTTRGPLSMTLGIHGFVPMGRALTRSGAKPGDWIYVTGTPGDSAAGLAILQNRLQVADAKDADYLIKRHLRPSPRILQGQALRDLANSAIDLSDGLISDLGHIVKASDCGARIDLALLPFSDALSRHVVPEQALRWALSGGEDYELCFTVPELNRGALDVALGHLGVPFTCIGQMTADIEGLCFIRDGEPVTLDWKGYDHFATP
protein production: not failed

MFSLNTLLNPPDNLSVGEIILISLILGMLHGVTPDEHTWPITFSYAIGKYSTKGGMKAGFLFSLGFTIQRAFLTTIGFLGLAAIYNQYNLDGPVYAVVGIVMAIAGSYILKGKYIHLPIDALFKSKQHTEEAGKVKDIPIKMTIVHGLVAGFGFGAYATIITFVLAPQLPSVVYAPLPGLFFGLGTMVMQIIFGMIFGNILRLKKMTEEQLSFIARKTAGRVLYYGGLVFLIVGLLIIVLPAIDNFAISTGNPIPNLDAINIGFLLVISVVGVIGISSILYGFREAKRLAKHI
protein production: failed

SLLCGPLRLSESGETWSEVWAAIPMSDPQVLHLQGGSQDGRLPRTIPLPSCKLSVPDPEERLDSGHVWKLQWAKQSWYLSASSAELQQQWLETLSTAAH
protein production: not failed

MKGVIMIIDGMADRPLEKLSGRTPLEAASTPNMDRIAESGINGIMDPIKPGVRAGSDTSHLSILGYDPYRVYTGRGPFEAAGVGLDVKPGDIAFRCNFATADEDMIITDRRAGRIRSGTSSIARTINSMTIEGFEDVEIIFRESTGHRAVLVLRGPGLGDKVSDADPKVEGKPPKKIKALDGSPESRKTAEVLNRIVKESYEILRDHPVNTGRIERGEAPANIILPRGAGAVPHVEKFQERYDLKAACIAETGLIKGIGHLTGMDVIDVEGATGGIDTDLESIKNAISSAIAADYDFLLINIDGADEAGHDGDLEGKVRFIERVDSILGDLMGDDIYFILTADHSTPVSVMDHTGDPVPIAITGPEVRVDDVTSFSERAAAAGGLCRIRGSDVMDILLDLMNKKEKFGALEHHHHHH
protein production: failed

SLYGNSSGGTLLTTTKEGQGKDSVELNYSGGSHDKNRTGLILQGGAKQSNQPSYVISSSYFDTDGYREHSAAHKILNNAKLTWNLDDGSKINWITNYVKINADDPQGLTRDQWKANPKQQVPFLQQFDVRKDIEQTQTGVTWSKPINDQNELYMMGYLGNRKVTQYQSIPKSTQDASKNQAGGVIDFERNYYGADLRWTGKELLPNTTFSVGVALDAMDEDRKGYENYVTVNNQPSYGVKGNLRRDEDNTLWNIDPYLQASWQFLPTWRLDTGVRYSNVHYKSDDHFIVIGNTAKDSNPDDSGKTDYSKVLPSAALSWQIVPELLAYVSYAKGFETPTFTEMAYNPDPDLSGFNFGLKASTSDTYEAGLKSQNRLGDFTLAAFQTKTKDDIVSAGSINGRATFRNADRTLREGIEFTWNKQLWRDLVLNTSYAYLNATFDADVPATASVAAITSGNQIPGVAKNQAYASLAWKPQTGFHGGIDAQYNDKIYVDDKNSDAAPSYTVVAAYAGYTWQMQDWKLNVYSRVDNMFDKSYVGSVIVNDGNSRFFEPADGRNWSAGLRVSKQF
protein production: failed
